Reference: article PMC8546600, “Chaperone Spy Protects Outer Membrane Proteins from Folding Stress via Dynamic Complex Formation” (mBio, 2021)

What was measured:
Details in all cases: both partners purified
His-OmpX = biological target: T1, His-OmpX (Escherichia coli, UniProt P0A917 24-171); assay: other fluorescence titration; intrinsic tryptophan fluorescence of the OMP (0.4 uM) titrated with increasing Spy or Skp; 40 mM HEPES, 150 mM NaCl, 0.24 M urea, pH 7.5; 25 C; excitation 295 nm, emission 305-400 nm
T1 construct: Unfolded: diluted from 8 M urea to 0.24 M urea for the assay; source: E. coli, from pET28b(+)-His-ompX, purified, kept in 8 M urea; not shown: 6xHis, N-terminal, kept
T1 sequence (looked up): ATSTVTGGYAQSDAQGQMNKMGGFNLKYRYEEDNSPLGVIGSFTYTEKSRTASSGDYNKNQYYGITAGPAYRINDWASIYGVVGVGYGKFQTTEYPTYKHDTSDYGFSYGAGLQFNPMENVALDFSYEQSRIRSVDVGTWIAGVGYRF

His-OmpC = biological target: T2, His-OmpC (Escherichia coli, UniProt P06996 22-367); assay: as above
T2 construct: Unfolded: diluted from 8 M urea to 0.24 M urea for the assay; source: E. coli, from pET28b(+)-His-ompC, purified, kept in 8 M urea; not shown: 6xHis, N-terminal, kept
T2 sequence (looked up): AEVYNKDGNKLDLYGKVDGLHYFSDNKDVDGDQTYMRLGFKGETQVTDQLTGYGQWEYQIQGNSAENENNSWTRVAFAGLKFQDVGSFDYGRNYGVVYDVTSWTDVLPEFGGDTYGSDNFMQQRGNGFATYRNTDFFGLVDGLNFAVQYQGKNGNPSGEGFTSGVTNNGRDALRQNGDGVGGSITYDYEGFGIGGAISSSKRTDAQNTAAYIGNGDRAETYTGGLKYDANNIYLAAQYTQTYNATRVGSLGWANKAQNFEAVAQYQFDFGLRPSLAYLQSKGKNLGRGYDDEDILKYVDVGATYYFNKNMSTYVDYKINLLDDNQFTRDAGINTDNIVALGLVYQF

His-OmpA = biological target: T3, His-OmpA (Escherichia coli, UniProt P0A910 22-346); assay: as above
T3 construct: Unfolded: diluted from 8 M urea to 0.24 M urea for the assay; source: E. coli, from pET28b(+)-His-ompA, purified, kept in 8 M urea; not shown: 6xHis, N-terminal, kept
T3 sequence (looked up): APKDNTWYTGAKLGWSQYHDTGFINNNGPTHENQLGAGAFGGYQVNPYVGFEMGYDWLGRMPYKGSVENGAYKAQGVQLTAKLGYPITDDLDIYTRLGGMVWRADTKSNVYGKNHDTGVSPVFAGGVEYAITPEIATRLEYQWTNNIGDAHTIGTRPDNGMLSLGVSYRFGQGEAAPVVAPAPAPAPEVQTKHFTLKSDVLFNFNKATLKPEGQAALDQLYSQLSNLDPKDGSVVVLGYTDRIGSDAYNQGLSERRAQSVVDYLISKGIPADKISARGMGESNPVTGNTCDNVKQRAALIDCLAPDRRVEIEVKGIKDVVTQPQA

His-LamB = biological target: T4, His-LamB (Escherichia coli, UniProt P02943 26-446); assay: as above
T4 construct: Unfolded: diluted from 8 M urea to 0.24 M urea for the assay; source: E. coli, from pET28b(+)-His-lamB, purified, kept in 8 M urea; not shown: 6xHis, N-terminal, kept

untagged OmpX = biological target: T5, untagged OmpX (Escherichia coli, UniProt P0A917 24-171); assay: NMR spectroscopy of assembled chaperone-OMP complexes; excess urea-denatured OMP added dropwise to the chaperone, supernatant concentrated; 2D [15N,1H]-TROSY or HSQC with one partner [U-2H,15N]-labelled; 25 mM MES, 50 mM NaCl, pH 6.5; 315 K (tOmpA-Spy also at 42, 26 and 15 C)
T5 construct: outer membrane protein OmpX of Escherichia coli; [U-2H,15N]-labelled in the TROSY experiments, unlabelled in the HSQC experiment with labelled Spy; source: E. coli, from pET28b(+)-ompX, purified from the insoluble pellet in 8 M urea (ion exchange)
T5 sequence (looked up): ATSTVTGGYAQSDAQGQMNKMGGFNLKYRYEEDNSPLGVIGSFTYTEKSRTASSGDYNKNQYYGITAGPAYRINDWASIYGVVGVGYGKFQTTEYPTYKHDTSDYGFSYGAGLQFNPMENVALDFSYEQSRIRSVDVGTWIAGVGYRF

Measured: binding result

T4 sequence (P02943 26-446): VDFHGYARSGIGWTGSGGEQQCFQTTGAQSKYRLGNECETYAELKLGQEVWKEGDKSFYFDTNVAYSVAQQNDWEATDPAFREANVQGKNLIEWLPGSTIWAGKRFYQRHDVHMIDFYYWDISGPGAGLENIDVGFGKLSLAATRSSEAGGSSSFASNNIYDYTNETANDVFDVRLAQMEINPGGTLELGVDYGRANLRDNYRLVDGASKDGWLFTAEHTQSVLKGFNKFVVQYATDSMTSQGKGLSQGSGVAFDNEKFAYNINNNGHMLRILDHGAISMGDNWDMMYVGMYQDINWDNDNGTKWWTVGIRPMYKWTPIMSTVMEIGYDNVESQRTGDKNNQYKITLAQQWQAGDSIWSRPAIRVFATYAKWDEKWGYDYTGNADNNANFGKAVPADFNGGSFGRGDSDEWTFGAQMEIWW

B1: seventeen-kilodalton protein (Skp) (natural protein, Escherichia coli, UniProt P0AEU7 21-161, looked up)
chain: ADKIAIVNMGSLFQQVAQKTGVSNTLENEFKGRASELQRMETDLQAKMKKLQSMKAGSDRTKLEKDVMAQRQTFAQKAQAFEQDRARRSNEERGKLVTRIQTAVKSVANSQDIDLVVDANAVAYNSSDVKDITADVLKQVK
notes: Skp, periplasmic chaperone of Escherichia coli; source: E. coli, from pET28b(+)-HisSUMO-skp, purified (6xHis-SUMO tag removed, cation exchange)
not listed: untagged OmpX
binds: all other assays above

B2: periplasmic chaperone Spy (natural protein, Escherichia coli, UniProt P77754 24-161, looked up)
chain: ADTTTAAPADAKPMMHHKGKFGPHQDMMFKDLNLTDAQKQQIREIMKGQRDQMKRPPLEERRAMHDIIASDTFDKVKAEAQIAKMEEQRKANMLAHMETQNKIYNILTPEQKKQFNANFEKRLTERPAAKGKMPATAE
notes: Spy, periplasmic chaperone of Escherichia coli; [U-2H,15N]-labelled in the HSQC experiment with unlabelled OmpX, unlabelled elsewhere; also called wild-type Spy; WT Spy; source: E. coli, from pET28b(+)-HisSUMO-spy, purified (6xHis-SUMO tag removed, cation exchange)
binds: all assays above

B3: Spy^Q100L (natural protein, Escherichia coli, UniProt P77754 24-161, looked up)
chain: ADTTTAAPADAKPMMHHKGKFGPHQDMMFKDLNLTDAQKQQIREIMKGQRDQMKRPPLEERRAMHDIIASDTFDKVKAEAQIAKMEEQRKANMLAHMETLNKIYNILTPEQKKQFNANFEKRLTERPAAKGKMPATAE
notes: Spy of Escherichia coli with Q100L; also called Q100L variant; source: E. coli, from pET28b(+)-HisSUMO-spy-Q100L, purified
binds: untagged OmpX
